# Results published in publication PMC6212770 (Nucleic Acids Research, 2018).
# T1: HermesΔ transposase (UniProt Q25438 79-612, C519S;del497-516)
# T1 sequence: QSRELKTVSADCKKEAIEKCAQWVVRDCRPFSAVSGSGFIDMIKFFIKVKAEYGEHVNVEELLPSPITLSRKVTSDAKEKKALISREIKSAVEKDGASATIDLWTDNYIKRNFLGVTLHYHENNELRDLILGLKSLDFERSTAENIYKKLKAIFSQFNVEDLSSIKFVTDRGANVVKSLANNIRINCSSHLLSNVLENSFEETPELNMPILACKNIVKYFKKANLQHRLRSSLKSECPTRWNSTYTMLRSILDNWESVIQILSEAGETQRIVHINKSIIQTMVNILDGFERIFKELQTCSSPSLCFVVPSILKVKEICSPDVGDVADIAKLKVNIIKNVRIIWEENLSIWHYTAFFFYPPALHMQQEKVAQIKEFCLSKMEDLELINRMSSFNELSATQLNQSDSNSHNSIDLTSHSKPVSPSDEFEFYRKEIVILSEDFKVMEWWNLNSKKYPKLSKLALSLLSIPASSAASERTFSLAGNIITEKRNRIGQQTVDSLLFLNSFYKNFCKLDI
# B1: DNA(C:G) (dsDNA)
# DNA 1: GCGTGAC
# DNA 2: AGAGAACAACAACAAG
# DNA 3: CTTGTTGTTGTTCTCTGGGTCACGC
# B2: DNA(A:T) (dsDNA)
# DNA 1: GCGTGAA
# DNA 2: AGAGAACAACAACAAG
# DNA 3: CTTGTTGTTGTTCTCTGGTTCACGC
# B3: Hermes_(79-612Δ497-516) (enzyme, Musca domestica, UniProt Q25442 79-612, looked up)
# chain: QSRELKTVSADCKKEAIEKCAQWVVRDCRPFSAVSGSGFIDMIKFFIKVGAEYGEHVNVEELLPSPITLSRKVTSDAKEKKALISREIKSAVEKDGASATIDLWTDNYIKRNFLGVTLHYHENNELRDLILGLKSLDFERSTAENIYKKLKAIFLQFNVEDLSSIKFVTDRGANVVKSLANNIRINCSSHLLSNVLENSFEETPELNVPILACKNIVKYFKKANLQHRLRSSLKSECPTRWNSTYTMLRSILDNWESVIQILSEAGETQRIVHINKSIIQTMVNILDGFERIFKELQTCSSPSLCFVVPSILKVKEICSPDVGDVADIAKLKVNIIKNVRIIWEENLSIWHYTAFFFYPPALHMQQEKVAQIKEFCLSKMEDLELINRMSSFNELSATQLNQSDSNSHNSIDLTSHSKPVSPSDEFEFYRKEIVILSEDFKVMEWWNLNSKKYPKLSKLALSLLSIPASSAASERTFSLAGNIITEKRNRIGQQTVDSLLFLNSFYKNFCKLDI
# Legend:
# [1] = target: T1, HermesΔ transposase; assay: X-ray crystallography; no metal ions; Complex dialyzed at 4°C in 25 mM HEPES pH 7.5, 0.3 mM TCEP, 0.5 M then 250 mM NaCl, with or without 5 mM MgCl2; DNA:protein 1:1.05 as printed
# [2] = target: T1, HermesΔ transposase; assay: X-ray crystallography; 8 mM Mn2+ soak, 48 h; two Mn2+ in active site, third Mn2+ at N185; Complex dialyzed at 4°C in 25 mM HEPES pH 7.5, 0.3 mM TCEP, 0.5 M then 250 mM NaCl, with or without 5 mM MgCl2; DNA:protein 1:1.05 as printed
# [3] = target: the molecule itself; assay: crystal structure; HermesΔ co-crystallised with annealed DNA(C:G) or DNA(A:T) oligonucleotides, hanging drops at 4°C, with or without a soak in 8 mM CaCl2 or MnCl2; four structures at 2.85-3.2 Å
binder,measurement,setting,value
B1,binding result,[1],binds
B2,binding result,[2],binds
B3,binding result,[3],binds
